Reference: patent publication US20040224363A1

Assays:
[1] = target: putative IBC-1 receptor on G361 melanoma cells, much lower affinity binding site; assay: Scatchard analysis of AP-IBC-1 binding to G361 melanoma cells (bound AP activity)
[2] = target: putative IBC-1 receptor on G361 melanoma cells, moderately high affinity binding site; assay: as above

- Kd [1]: 360 nM
- binding sites/cell (binding sites/cell) [1]: 350000
- Kd [2]: 37.5 nM
- binding sites/cell (binding sites/cell) [2]: 17000
Substance: alkaline phosphatase-IBC-1 (AP-IBC-1) fusion protein (from UniProt P81605 20-110) (ligand)
